Source: patent US20180327500A1 (SYMPHOGEN A S, published 2018)
Blank lines part the entries; values can stand above or below the binder they belong to.

Molecular target: T1, His tagged human MET ECD (Sinobiological) (human, UniProt P08581 25-932)
T1 construct: Bought monovalent antigen; also called human MET antigen; not shown: His tag
Assay: BLI (Octet QK384); antibody captured on anti-human Fc sensors, monovalent MET ECD in solution, 1:1 Langmuir fit

T1 sequence (P08581 25-932): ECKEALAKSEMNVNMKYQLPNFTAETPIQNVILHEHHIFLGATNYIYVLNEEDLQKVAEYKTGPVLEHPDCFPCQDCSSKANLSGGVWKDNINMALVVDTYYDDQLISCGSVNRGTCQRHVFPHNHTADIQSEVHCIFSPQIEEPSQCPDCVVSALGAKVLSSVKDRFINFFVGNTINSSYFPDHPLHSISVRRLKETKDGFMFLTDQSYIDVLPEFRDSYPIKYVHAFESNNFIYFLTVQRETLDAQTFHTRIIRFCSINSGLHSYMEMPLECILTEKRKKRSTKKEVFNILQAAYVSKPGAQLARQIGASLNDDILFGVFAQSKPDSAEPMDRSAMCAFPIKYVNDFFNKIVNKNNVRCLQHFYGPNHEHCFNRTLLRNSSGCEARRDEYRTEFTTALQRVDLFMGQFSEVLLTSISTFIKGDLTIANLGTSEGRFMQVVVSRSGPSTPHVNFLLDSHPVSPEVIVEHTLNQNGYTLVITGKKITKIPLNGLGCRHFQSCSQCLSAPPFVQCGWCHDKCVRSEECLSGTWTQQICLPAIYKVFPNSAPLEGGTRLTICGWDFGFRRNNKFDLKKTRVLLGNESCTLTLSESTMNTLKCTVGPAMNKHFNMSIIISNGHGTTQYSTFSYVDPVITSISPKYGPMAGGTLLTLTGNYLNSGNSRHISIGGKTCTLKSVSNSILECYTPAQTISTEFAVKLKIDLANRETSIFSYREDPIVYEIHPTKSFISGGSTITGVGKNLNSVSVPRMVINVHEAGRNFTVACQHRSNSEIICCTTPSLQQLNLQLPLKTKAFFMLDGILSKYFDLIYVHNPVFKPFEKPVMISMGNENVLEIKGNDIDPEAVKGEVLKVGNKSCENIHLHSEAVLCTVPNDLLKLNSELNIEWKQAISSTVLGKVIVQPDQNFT

- Kd: 0.6 nM
- koff: 0.00011 s⁻¹
- kon: 190000 M⁻¹ s⁻¹
B1: chimeric antibody 9338 (antibody, V domains shown)
VH: QVQLQQPGAELAKPGASVRMSCKASGYTFTSYWMHWVKQRPGQGLEWIGYINPSSGHIENNQKFKDKATLTADKSSSTAYMQLSSLTFEDSAVYYCARGRFAYWGQGTLVTVSS
VL: DIVMTQSPAIMSASPGEKVTLTCSASSSVSSGYLYWYQQKPGSSPKLWIYSTSNLASGVPARFSGSGSGTSYSLTVNSMEAEDAASYFCHQWSSYPFTFGSGTKLELK

- Kd: 2.2 nM
- koff: 0.00012 s⁻¹
- kon: 54000 M⁻¹ s⁻¹
B2: chimeric antibody 9006 (antibody, V domains shown)
VH: QIHLGQSGPELKKPGETVKISCKASGYTFTNFRMNWVKQAPGKGLKWMGWINTYTGEPTYVDDLKGRFAFSLETSASTAYLQINNLKNEDMATYFCARKGIARAMDYWGQGTSVTVSS
VL: NIVMTQSPSSLSVSAGEMVTMSCKSSQSLLDSGNQKNYLAWYQQKPGQPPQLLIFGASTRESGVPDRFTGSGSGTDFTLTVSSVQAEDLAVYYCQNDHSYPYTFGGGTKLEIK
